The values below are quoted from earlier work in article PMC12571840.

The target in data set [1] is CRHR1 (Homo sapiens) (UniProt P34998).
The target in data set [2] is CRHR2 (Homo sapiens) (UniProt Q13324).
UniProt Q13324, sequence (Q13324 20-411): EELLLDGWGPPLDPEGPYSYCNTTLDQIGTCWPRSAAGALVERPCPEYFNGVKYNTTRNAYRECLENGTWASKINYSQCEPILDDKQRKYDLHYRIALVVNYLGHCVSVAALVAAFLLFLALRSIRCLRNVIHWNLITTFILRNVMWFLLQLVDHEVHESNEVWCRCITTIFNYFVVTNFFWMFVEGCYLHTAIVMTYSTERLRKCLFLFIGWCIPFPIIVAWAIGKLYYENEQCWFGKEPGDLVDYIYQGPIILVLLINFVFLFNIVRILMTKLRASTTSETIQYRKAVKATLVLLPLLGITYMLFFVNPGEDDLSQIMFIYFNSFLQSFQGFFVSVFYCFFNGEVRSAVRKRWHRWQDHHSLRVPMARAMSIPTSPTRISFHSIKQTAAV

UniProt P34998, sequence (P34998 24-415): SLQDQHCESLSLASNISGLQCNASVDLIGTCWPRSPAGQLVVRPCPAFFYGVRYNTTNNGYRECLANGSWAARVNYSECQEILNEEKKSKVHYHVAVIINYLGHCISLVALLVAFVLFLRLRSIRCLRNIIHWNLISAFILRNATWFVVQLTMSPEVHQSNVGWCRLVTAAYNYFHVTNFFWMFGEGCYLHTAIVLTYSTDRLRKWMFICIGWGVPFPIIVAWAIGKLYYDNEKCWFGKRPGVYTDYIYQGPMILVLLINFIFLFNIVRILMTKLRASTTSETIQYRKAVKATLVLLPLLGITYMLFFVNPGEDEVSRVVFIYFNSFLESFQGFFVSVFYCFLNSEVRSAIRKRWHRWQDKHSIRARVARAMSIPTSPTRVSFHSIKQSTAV

In the case of CRH (from UniProt P06850), the inhibition constant (Ki) (in general, the equilibrium dissociation constant of an inhibitor or competing ligand from its target) in data set [1] is 0.95 nM; in data set [2], 13 nM.
